Residue numbers refer to the chain shown, from its start.
B1: 20E6_H0L1 (antibody, human IgG1, kappa, V domains shown)
VH: QVQLVQSGAEVKKPGASVKVSCKASGYTFTSYWMHWVRQAPGQGLEWMGRIDPNSGGIKYNEKFKSRVTMTRDTSISTAYMELSRLRSDDTAVYYCARWDYGGYFDVWGQGTLVTVSS
VL: DIQMTQSPSSLSASVGDRVTITCRASQDITNYLNWYQQKPGKAVKLLIYYTSRLHSGVPSRFSGSGSGTDYTLTISSLQPEDFATYFCQQGDTLPWTFGQGTKLEIKR
B2: 20E6_H1L1 (antibody, human IgG1, kappa, V domains shown)
VH: B1 VH with M48I, M70L, R72V
VL: B1 VL
B3: 20E6_H3L1 (antibody, human IgG1, kappa)
heavy: not shown
light: DIQMTQSPSSLSASVGDRVTITCRASQDITNYLNWYQQKPGKAVKLLIYYTSRLHSGVPSRFSGSGSGTDYTLTISSLQPEDFATYFCQQGDTLPWTFGQGTKLEIKRTVAAPSVFIFPPSDEQLKSGTASVVCLLNNFYPREAKVQWKVDNALQSGNSQESVTEQDSKDSTYSLSSTLTLSKADYEKHKVYACEVTHQGLSSPVTKSFNRGEC
B4: 20E6_H4L1 (antibody, human IgG1, kappa)
heavy: not shown
light: B3 light
B5: 22F9_H5L0 (antibody, human IgG1, kappa)
heavy: not shown
light: DIQLTQSPSSLSASVGDRVTITCRASKSVSTSGYSYMHWYQQKPGKAPKLLIYLASNLESGVPSRFSGSGSGTDFTLTISSLQPEDFATYYCQHSRELPYTFGGGTKVEIKRTVAAPSVFIFPPSDEQLKSGTASVVCLLNNFYPREAKVQWKVDNALQSGNSQESVTEQDSKDSTYSLSSTLTLSKADYEKHKVYACEVTHQGLSSPVTKSFNRGEC
B6: 22F9_H4L0 (antibody, human IgG1, kappa)
heavy: not shown
light: B5 light
B7: 22F9_H3L0 (antibody, human IgG1, kappa, V domains shown)
VH: QVQLVQSGAEVKKPGASVKVSCKASGYTFTSYWMHWVRQAPGQGLEWIGMIHPNSGSTNYNEKFKSRVTLTVDKSSSTAYMELSSLRSEDTAVYYCAYYDYDGFFDVWGQGTLVTVSS
VL: DIQLTQSPSSLSASVGDRVTITCRASKSVSTSGYSYMHWYQQKPGKAPKLLIYLASNLESGVPSRFSGSGSGTDFTLTISSLQPEDFATYYCQHSRELPYTFGGGTKVEIKR
B8: 22F9_H5L1 (antibody, human IgG1, kappa)
heavy: not shown
light: B5 light with A47P, D74H
B9: 22F9_H5L2 (antibody, human IgG1, kappa)
heavy: not shown
light: B5 light with A13V, V19A, A47P, D74H, L82V, V108L
B10: 22F9_H4L2 (antibody, human IgG1, kappa)
heavy: not shown
light: B5 light with A13V, V19A, A47P, D74H, L82V, V108L
B11: 28G11_mIgG2a (antibody, V domains shown)
VH: EVKLVESGGGLVQPGGSLSLSCAASGFTFTDYYMSWVRQPPGKALEWLGFIRNKPNGYTTEYSASVKGRFTISRDNSQSILYLQMNVLRAEDSATYYCARYTGGGYFDYWGQGTTLTVSS
VL: DIQMTQTTSSLSASLGDRLTISCRASQDISNYLNWYQQKPDGTVKLLIYYTSRLHSGVPSRFSGSGSGTDYSLTISNLEQADIATYFCQQGDTLPWTFGGGTKLEIK
B12: H0L0 (antibody, human IgG1, kappa, V domains shown)
VH: B7 VH with I48M, L70M, V72R, K74T, S76T, A79V, Y98R
VL: B7 VL
notes: also called 22F9_H0L0
B13: H0L2 (antibody, human IgG1, kappa, V domains shown)
VH: B7 VH with I48M, L70M, V72R, K74T, S76T, A79V, Y98R
VL: B7 VL with A13V, V19A, A47P, D74H, L82V, V108L
notes: also called 22F9_H0L2
B14: H1L2 (antibody, human IgG1, kappa, V domains shown)
VH: B7 VH with L70M, K74T, S76T, A79V
VL: B7 VL with A13V, V19A, A47P, D74H, L82V, V108L
notes: also called 22F9_H1L2
B15: H0L1 (antibody, human IgG1, kappa, V domains shown)
VH: B7 VH with I48M, L70M, V72R, K74T, S76T, A79V, Y98R
VL: B7 VL with A47P, D74H
notes: also called 22F9_H0L1
B16: 22F9_H3L1 (antibody, human IgG1, kappa, V domains shown)
VH: B7 VH
VL: B7 VL with A47P, D74H
B17: 22F9_H2L1 (antibody, human IgG1, kappa, V domains shown)
VH: B7 VH with K74T, S76T
VL: B7 VL with A47P, D74H
B18: 22F9_H2L0 (antibody, human IgG1, kappa, V domains shown)
VH: B7 VH with K74T, S76T
VL: B7 VL

Target: T1, fusion protein of a human IgG1 Fc domain and human LAP-TGFβ1 (human, UniProt P01137 30-390)
T1 construct: printed both as Fc-huB1 and LAP-TGFβ-Fc; also called Fc-huB1; Fc-human LAP
Test: BLI (Octet)

T1 sequence (P01137 30-390 limits assumed): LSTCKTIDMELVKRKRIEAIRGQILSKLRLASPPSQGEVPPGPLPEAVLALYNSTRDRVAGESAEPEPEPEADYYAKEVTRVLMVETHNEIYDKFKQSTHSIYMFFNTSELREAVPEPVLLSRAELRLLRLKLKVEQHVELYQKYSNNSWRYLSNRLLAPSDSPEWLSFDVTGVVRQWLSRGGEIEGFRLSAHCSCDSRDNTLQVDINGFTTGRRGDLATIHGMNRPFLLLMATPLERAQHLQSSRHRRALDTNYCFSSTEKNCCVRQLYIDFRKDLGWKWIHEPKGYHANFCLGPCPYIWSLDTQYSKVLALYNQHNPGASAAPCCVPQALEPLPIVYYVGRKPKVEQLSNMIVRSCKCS

Binder | Kd [nM] | koff [s⁻¹] | kon [M⁻¹ s⁻¹]
B1 | 0.51 | 0.000814 | 1.59e+06
B2 | 0.48 | 0.000677 | 1.41e+06
B3 | 0.47 | 0.000702 | 1.48e+06
B4 | 0.47 | 0.000729 | 1.56e+06

Target: T1, fusion protein of a human IgG1 Fc …
Test: BLI, antibody on tip, 1:1 model
Procedure: (§1) Binding to human TGFβ1 of a subset of candidates was also tested by bio-layer interferometry (Octet). A streptavidin coated tip was equilibrated for 60 seconds in binding buffer (10 mM sodium phosphate, 150 mM sodium chloride, 1% bovine serum albumin, 0.05% sodium azide). The tip was then dipped in 10 μg/mL biotinylated antibody in binding buffer. After 15 seconds, the tip was washed in binding buffer for 60 seconds, and then dipped in 0-24 nM Fc-human LAP. Analyte association was measured for 5 minutes. The tip was transferred to binding buffer alone, and analyte dissociation was measured for 5 minutes. The association and dissociation data were fit to a 1:1 binding model.

Binder | Kd [nM] | koff [s⁻¹] | kon [M⁻¹ s⁻¹]
B5 | 3.35 | 0.0017 | 510000
B6 | 1.63 | 0.00132 | 810000
B7 | 2.75 | 0.00214 | 778000
B8 | 2.34 | 0.00122 | 519000
B9 | 3.91 | 0.00246 | 629000
B10 | 2.3 | 0.00137 | 598000

Target: T2, human LAP-TGFβ1 overexpressed on cells (human, UniProt P01137 30-390)
Test: cell-based or functional assay

T2 sequence (P01137 30-390): as the sequence (P01137 30-390 limits assumed) above

Binder | IC50 of inhibition of TGFβ1 activation [µg/mL]
B11 | 1.6

Target: murine LAP-TGFβ1 overexpressed on cells (mouse, UniProt P04202 30-390)
Test: cell-based or functional assay

Sequence of murine LAP-TGFβ1 overexpressed on cells (P04202 30-390): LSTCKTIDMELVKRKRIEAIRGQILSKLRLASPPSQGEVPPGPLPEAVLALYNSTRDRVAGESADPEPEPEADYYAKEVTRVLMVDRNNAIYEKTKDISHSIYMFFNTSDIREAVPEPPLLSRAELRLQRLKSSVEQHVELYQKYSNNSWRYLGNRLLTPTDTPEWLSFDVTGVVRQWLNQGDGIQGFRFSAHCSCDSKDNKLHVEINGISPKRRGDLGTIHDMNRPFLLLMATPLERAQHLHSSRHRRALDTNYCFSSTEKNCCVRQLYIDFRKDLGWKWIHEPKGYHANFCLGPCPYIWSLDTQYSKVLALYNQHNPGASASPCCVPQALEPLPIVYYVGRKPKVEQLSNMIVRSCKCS

Binder | IC50 of inhibition of TGFβ1 activation [µg/mL]
B11 | 0.8

Target: T1, fusion protein of a human IgG1 Fc …
Test: BLI, signal change on binding
Procedure: as §1

Binder | Binding (nm)
B5 | 0.13
B6 | 0.057
B7 | 0.023
B8 | 0.08
B9 | 0.06
B10 | 0.07

Target: T2, human LAP-TGFβ1 overexpressed on cells
Test: flow cytometry; black bar HT1080-huB1, grey bar HT1080
Procedure: First, the ability of 22F9H0L0, HILO, H2L0, H3L0, H4L0, H5L0, H0L1, H1L1, H2L1, H3L1, H4L1, H5L1, H0L2, H1L2, H2L2, H3L3, H4L2, and H5L2 to bind to HT1080 cells overexpressing human TGFβ1 was tested by flow cytometry. HT1080 cells over-expressing human LAP-TGFβ1 were placed in a round-bottom 96-well plate at density of 40,000 cells/well. The cells were washed with FACS buffer (25 mM HEPES, 2 mM EDTA, 2% fetal bovine serum in Hank's Balanced Salt Solution). 50 μL of 1:200 diluted TruStain Human FcX (BioLegend) was added to each well, followed by 50 μL of 100 ng/μL of humanized 22F9 construct. The antibody was allowed to bind for 20 minutes. The cells were washed twice with FACS buffer. The cells were labeled for 15 minutes with Alexa647-anti Human IgG (Jackson Immunoresearch), washed twice with FACS buffer, and analyzed by flow cytometry.

Binder | binding result
B12 | no binding (tested: single dose, 50 µL of 100 ng/µL)
B13 | no binding (tested: single dose, 50 µL of 100 ng/µL)
B14 | no binding (tested: single dose, 50 µL of 100 ng/µL)
B15 | no binding (tested: single dose, 50 µL of 100 ng/µL)
B16 | binds
B17 | binds
B18 | binds

Source: patent publication US20220017612A1 (TILOS THERAPEUTICS, published 2022)
